Experimental data published in US20210122804A1, “PEPTIDE LIGANDS FOR BINDING TO CD38” (BicycleTx Limited, priority 2018, published 2021).
*1 amine or outer side, *2 acyl side, *3 side chain or, on linkers, in order; H or OH if unused. Bridges are numbered along the chain shown (N, C = ends). Where no end group is shown, it is not given here. TATA = O=C(CC[*:1])N1CN(C(=O)CC[*:2])CN(C(=O)CC[*:3])C1; TBMB = c1c(C[*:1])cc(C[*:3])cc1C[*:2]

Assays:
[1] = target: T1, human CD38 (Homo sapiens, UniProt P28907); assay: CD38 Competition Binding Assay (fluorescence polarisation); settings: compared with all-thioether Reference Example 1
T1 sequence (P28907 1-300): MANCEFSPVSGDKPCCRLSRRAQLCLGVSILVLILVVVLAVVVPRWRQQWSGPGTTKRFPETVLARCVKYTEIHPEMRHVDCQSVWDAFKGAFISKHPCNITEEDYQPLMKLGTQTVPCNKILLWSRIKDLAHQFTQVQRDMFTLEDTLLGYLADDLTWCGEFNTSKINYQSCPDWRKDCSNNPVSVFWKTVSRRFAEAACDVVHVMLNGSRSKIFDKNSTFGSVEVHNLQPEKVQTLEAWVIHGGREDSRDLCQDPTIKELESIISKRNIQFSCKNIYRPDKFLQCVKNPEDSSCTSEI
Experimental: CD38 Competition Binding Assay Affinity of various bicycle peptide compounds for human CD38 (Ki) was determined using a fluorescence polarisation assay, using the method reported by Lea et al (Expert Opin Drug Discov. 2011 6(1): 17-3) and using the following fluorescently labelled peptides […]-Sar6-K(F1) for TBMB derivatives and […]-Sar6-K(F1) for TATA derivatives where Fl is a fluorescein molecule.

[2] = target: T2, human CD38 (human, UniProt P28907 43-300, limits assumed); assay: fluorescence polarisation competition; tracer m10
T2 construct: construct used is not described; also called hCD38
T2 sequence (looked up): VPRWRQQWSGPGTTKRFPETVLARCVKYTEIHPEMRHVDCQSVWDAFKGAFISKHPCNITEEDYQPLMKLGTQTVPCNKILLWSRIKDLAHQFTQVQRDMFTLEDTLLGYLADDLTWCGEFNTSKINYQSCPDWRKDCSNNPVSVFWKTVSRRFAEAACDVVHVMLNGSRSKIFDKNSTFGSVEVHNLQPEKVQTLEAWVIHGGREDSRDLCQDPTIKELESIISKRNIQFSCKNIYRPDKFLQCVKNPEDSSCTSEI

[3] = target: T2, human CD38; assay: fluorescence polarisation competition; tracer m11

## [Ac]ACVPCADFPIWYC [BCY00009245]
[1]
  affinity to CD38 (in words): high affinity

B1: 66-08-52-N001 (peptide)
peptide: ACFTLDGECFLLGENCA
modifications: linker 2-9-16 via TBMB
notes: bicyclic
[2]
  Ki: 562 nM

B2: 66-50-16-T01-N001 (peptide)
peptide: ACYWNPFTACWSCEND
modifications: linker 2-10-13 via TATA (inferred)
notes: bicyclic
[3]
  Ki: 90 nM

B3: 66-50-19-T002-N001 (peptide)
peptide: ACYWNPFTACYSCTEN
modifications: linker 2-10-13 via TATA (inferred)
notes: bicyclic; also called 66-50-19-T02-N001
[3]
  Ki: 316 nM
